Measurements reported in the DeepSol protein solubility set.

Assay: soluble on expression in E. coli; label from the status in PepcDB or PDB records

Sequence | soluble on expression in E. coli
MGSDKIHHHHHHMTIQDYMLETPVRMREIISNADSLFNEVKRTNLKKIIITGSGTSYHSGVQVQPYLQNLLDIDVVKMYPFMITEDTFKFDNENTLVVGVSQGGSSYSTYNAMKLAEDKGCKIASMAGCKNALIDEISDYILTVNCGEEKSGAKTKGYYCTKLNLMLLGLQIAREKGIISSEKYNEEINKILDAINRFEAVYKLSKQWIERNKEKLVNSKEIRIIGHSDIYGDTLEAALKLLETMRIPVTGYEFEEFIHGIYNAINSDSTIFILDTGKEPRVTKMIDVLSGWTENVFAIGRDVTENDKNLKIDITDNPYYQTFNFIVPIQLICGEIPTLRGVDPSVPKDTRFHMKLGSKKLNK | not soluble
MGSDKIHHHHHHMSREILRVENLVKHFPIRAGVFKRIVGWVKAVDGVSFSINEGETFGLVGESGCGKTTIGMTLLRLYEPTSGRIIVDNEDTTYYFMPRSKAKKYIKQTYLSRFVNMKESDVEKLEGVDREYARIFFEEAKGSPKKFMSILLDDLPEKRKKFRREMQIVFQDPYSSLNPRLRVKSIVGEGIVTHRIARGKEVEKRIKEILEDVGIPSAYVYRFPHEFSGGQRQRIGIARALALEPKLVVADEAVAALDVSIRSQIINLMEDLQREHKLTYIFISHDLAVVKHISDRIGVMYLGKMVELAPKKDLFEKPLHPYTVALMSAIPVPDPTKKRERIILKGDVPSPINPPSGCRFHTRCPIAKEICSKEEPAFREVEEGHFVACHFPGELR | not soluble
MLPVTYRLIPQSGVSTYRLNTADTPVFPDIPEHAPNPSRLRLAHDSLAINSEFRLEPECVVEYLISGAGGIDPDTEIDDDTYDECYDELSSVLQNAYTQSETFRRLMNYAYEKELHDVEQRWLLGAGEAFETTVAQEHFKLSEGRKVICLNLDDSDDSYTEHYESNEGRQLFDTKRSFIHEVVHALTHLQDKEENHPRGPVVEYTNIILKEMGHPSPPRMVYIFNK | not soluble
MAHHHHHHMEVEWDSETVTKFYNYLCGTISYQNCVELEKDLRIETGTEEKLNKHSCSSCSDHHGDVNISCFKFKKDDDDVLGEILDSEKDQENVKASLAEITQKAFTIYSNVIAKAASKGDNKVTLETDHFLRSDILRLVFSKYITTKAKERITEISSKSTKNIVTLANPLNMNEHDLNKIETDTIANLMHDYVGLQKNFLGRDYTKLIFDELVFIEYNNQFNSFGREYKNVRTDFYCWTYITSLDRQKQRGLYKLLKELSLLPYELNKKANLSLQIGTLFQFLYFSPNKSYLKKHCQGGYGKMDNGKKVTCIYVPFVHSNDDVEIKLYRSEYNGVNEESEESEGRGKTEPNVRDATTVPSNQTDDGAPFRVIKPESDSLIFLQTRNVSYEISKTKNKFFTVNFSISGPVSTERRL | not soluble
MIRTVMDFKFVLRLLEANQFENEVVEYKKNNKDFIVLGKNISALSNTAALLGIDKAYIIFGIEDGTLNIVGTNFKPKQEKKGNEELESWLHKVLKPNIEFKIHEITEKEIRLVVFEIEATKISPIKFEEKAYIRIGSNRKELDKYPEKEKKLWQVLSGFSFENEIAKSNLNIQDIYDLLDYSKCFDMLDISYDNYSSDEYIIEKLIEHGLVKNLNDSFAITNLGAILFAKDLTKFKGLNRKRIRFIRYQGKNKIHTLEELEGRKGYAIGFQGLISYIMQYVPKNEVIENAIRKDTTLYPEIAIRELVANAIIHQDFTINGRNPMIEMYSDRIEITNNGKSLIDIKRLIDMPSKSRNDKLANLMRIMGICEERGSGVDKVIDSVEAYQLPAPDFINNEDYFQAILFSHMPLEDMTKQDRIRATYQHCCLKWASREAMTNASLRARFKIGDKQHSKASKIISDTLEAGLIKQQDPENKSTKHVKYVPFFV | not soluble
MLTVIAEIRTRPGQHHRQAVLDQFAKIVPTVLKEEGCHGYAPMVDCAAGVSFQSMAPDSIVMIEQWESIAHLEAHLQTPHMKAYSEAVKGDVLEMNIRILQPGI | soluble
DVQLQESGTVLARPGASVKMSCKASGYSFTSYWMHWIKQRPGQGLEWIGGVYPGDSHTSYNQKFKGKAKLTAVTSASTAYMELSSLTNEDSAVYYCTRSGFDYGNEDWGQGTTLTVSSAKTTPPSVYPLAPGSAAQTNSMVTLGCLVKGYFPEPVTVTWNSGSLSSGVHTFPAVLQSDLYTLSSSVTVPSSPRPSETVTCNVAHPASSTKVDKKI | soluble
MLNDVYNKRIIELAGNIPRIGRLERPDASATAHSKLCGSTVTIDLKMDGDTVTDFAHIVKACALGQASSSIMASHVVGSTASELKALRETVRKMLKENGAPPDGKWADIAMLEPVRDYKARHASTLLTFDAVVDAIGQIEAQNDGAKATA | not soluble
MTETATARRSRITPEREAELYEAVLDLLREVGYDALTMDAVAARTRSSKATLYRQWGGKPELVVKAIRHNKPGEIGDVDTGSLRGDLHALMVREDDCTMEQNSALMRGVAMALHQNPDLRQAFREQLIEPEMAEFQRVLQRAVDRGEIRADCPALDFLVHMMVGGFATRTLLDDQPPTREFLASYIDAVILPALGVSTH | not soluble
AHHHHHHGSVDYELLKKVVEAPGVSGYEFMGIRDVVIEEIKDYVDEVNVDKLGNVIAHKKGEGPKVMIAAHMDQIGLMVTHIEKNGFLRVAPIGGIDPRTLIAQRFKVWIDKGKFIYGVGGSVPPHIQKPEDRKKAPDWDQIFIDIGAESKEEAEELGVKIGTIVTWDGRLERLGKHRFVSIAFDDRIAVYTLIETARQLQDTKADIYFVATVQEEVGLRGARTSAFGINPDYGFAIDVTIAADVPGTPEHKQVTQLGKGTAIKIMDRSVICHPTIVRWMEELAKKYEIPYQWDILLGGGTDAGAIHLTRAGVPTGAVSIPARYIHSNAEVVDERDVDASVKLMVKVLEHIHELKI | soluble
MGSSHHHHHHSSGLVPRGSHMASMAKMRAVDAAMYVLEKEGITTAFGVPGAAINPFYSAMRKHGGIRHILARHVEGASHMAEGYTRATAGNIGVCLGTSGPAGTDMITALYSASADSIPILCITGQAPRARLHKEDFQAVDIEAIAKPVSKMAVTVREAALVPRVLQQAFHLMRSGRPGPVLVDLPFDVQVAEIEFDPDMYEPLPVYKPAASRMQIEKAVEMLIQAERPVIVAGGGVINADAAALLQQFAELTSVPVIPTLMGWGCIPDDHELMAGMVGLQTAHRYGNATLLASDMVFGIGNRFANRHTGSVEKYTEGRKIVHIDIEPTQIGRVLCPDLGIVSDAKAALTLLVEVAQEMQKAGRLPCRKEWVADCQQRKRTLLRKTHFDNVPVKPQRVYEEMNKAFGRDVCYVTTIGLSQIAAAQMLHVFKDRHWINCGQAGPLGWTIPAALGVCAADPKRNVVAISGDFDFQFLIEELAVGAQFNIPYIHVLVNNAYLGLIRQSQRAFDMDYCVQLAFENINSSEVNGYGVDHVKVAEGLGCKAIRVFKPEDIAPAFEQAKALMAQYRVPVVVEVILERVTNISMGSELDNVMEFEDIADNAADAPTETCFMHYE | soluble
MTKSQIMDLSNFYQDTDYPSGRLIALLILSLGLTPAEIANLKKADFDTTFNILSIEKSQMKRILKLPEDLLPFLLESLEEDGDLVFEHNGKPYSRQWFFNQLTDFLNEKNEQQLTAQLLREQFILKQKENGKTMTELSRLLGLKTPITLERYYRLEHHHHHH | not soluble
MIWNEHHECMGRDQLASLQGERLRQMVERIYYNVPFYRNKLQEMGIEPGDIRSIDDLKKLPFTTKQDLRDNYPFGLFAVPQQDIVRFHASSGTTGKSTVVGYTHNDIMMWSEVVARSLTMAGVTKHDIIQVAYGYGLFTGGLGLHYGAEKIGASVIPISGGNTKKQLQLLEDFGSTAIACTPSYAAYLGEAIMEEKLDRSKIKLKAGIFGAEPWTEEMRSQIQQLLGIKAYDIYGLSEVIGPGVSMECSIQHGMHVFEDHFIPEIINPETGEVLPYGELGELVFTAVTKEALPLLRYRTRDLTRLHVERCDCGRTLVRMEKCVGRSDDMLIIRGVNVFPSQVESVLLEMSETKPHYLLVVDRQNNLDTLEIQVEVEDQFFSDEVKELEGLRKRISGNLTSILGLHANVRLVEPGTIERSQGKAQRVVDKRKLNEHKETP | not soluble
MSLKYDWILFDADETLFHFDAFKGMQLMFARKGVEFTEQDFHQYQEVNKPLWVDYQNGDITAAQLKHTRFAGWAEKLNTTTDELNSAFLQAMADICTLLPGAMELMQALQGKARLGIITNGFTELQDVRLAKTGMTDFFDQIVISEEVGIAKPDAGIFAHALERMGNPTKSRVLMVGDNPHSDILGGLNFGIETCWLNVHQHPKPDGITPHYEVTSLHELREILLAEGHHHHHH | soluble
RKRRRGYDVDEQGKIVRGKGTVSSNYDNYVFDIWKQYYPQPVEIKHDHVLDHYDIHEELGTGAFGVVHRVTERATGNNFAAKFVMTPHESDKETVRKEIQTMSVLRHPTLVNLHDAFEDDNEMVMIYEFMSGGELFEKVADEHNKMSEDEAVEYMRQVCKGLCHMHENNYVHLDLKPENIMFTTKRSNELKLIDFGLTAHLDPKQSVKVTTGTAEFAAPEVAEGKPVGYYTDMWSVGVLSYILLSGLSPFGGENDDETLRNVKSCDWNMDDSAFSGISEDGKDFIRKLLLADPNTRMTIHQALEHPWLTPGNAPGRDSQIPSSRYTKIRDSIKTKYDAWPEPLPPLGRISNYSSLRKHRPQEYSIRDAFWDRSEAQPRFIVKPYGTEVGEGQSANFYCRVIASSPPVVTWHKDDRELKQSVKYMKRYNGNDYGLTINRVKGDDKGEYTVRAKNSYGTKEEIVFLNVTRHSEPLKFEPLEPMKKAPSPPRVE | soluble
MGSDKIHHHHHHMREQLDQVGSGGVTGATGLLGNNLVRELVARGYTVKGLVRSKAKGEQQFNNLPGVELVVGDMAEVDAFAASLQGCDTVFHTASFFRDNYKGGSHWKELEQINVSGTRRLLEQAYGAGIRRFIHTSSIAVLNGAPGTSIEENCLRADADADDYYRSKILADRVVLSFLESHPQMHACMVLPGWMWGPGDVGPTSSGQLVNDVVQGKLPGLIPGSFSIVDARDVALAHIAAARHGRRGERYLAAGRHMTMRELMPVLGRMAGVKTPARQIPLPFLYTLAAVQEIYARLTGRPILLSMATLRLLVREQDRTRFDHRKSEQELGLSFRALELTIADTVAWYRDHGWFEKGSRL | not soluble
MSSVLRLAMRAKGFSRFLAETQAFPVKNRHFMTSSVRKTGDFEYEDPKSEDEVVNITYVLRDGTERKIRGKVGDNVMFLAHRYDIEMEGACEASLACSTCHVYVDPAFQNKLPEPLEEEDDMLDMAPALKDNSRLGCQIVLTKELDGITVTLPTMTRNFYVDGHVPKPH | not soluble
GPGSMNAASYSGSGLASAATVEDVVKPDTIAAILAQLKEQDVRIGRLEAAVERSAINRTHFDILTMAGVTADFVCDEISFHNRSTVEFNALPCKVTLDYPCGELSILLDDADSDLSFLGVTLRVDCITDCHLLVDPDNCSVVVDTNTSKITDVTQLVLVGPTQEATRELYEALRDVVAQRRPPCSPAPDTTTTTTRNSSRALINRSEGEYESTLGGDGKLFSIEATPNNAGTTRNNVDASSSPRLQLSNTLPCDRTAHTPVDPRRPNTLPSFSANRKGTQQE | soluble
